Test results: the DeepSol protein solubility set

Test: soluble on expression in E. coli; label from the status in PepcDB or PDB records

| Sequence | soluble on expression in E. coli |
| --- | --- |
| MLNLRGVEIRKGALDGPAQARLIEALRPVLKAAPLFTPTMPNGKPLSVRMTSAGSLGWVTDKGGYRYQPTHPKGMAWPAIPPEVLDLWHGVTGQDRAPDCCLINYYGEGARMGLHQDRDEADLTWPVVSLSLGDDALFRIGNTSRGGKTESVWLNSGDVVVMGGPARLIYHGIDRIRFGSSRLLPKGGRLNLTLRVAGLEHHHHHH | not soluble |
| GPGSMYFTSAKDVVRLCGGGLAPEVTFAIDDYPATDSIGYNSSAVAGGGGTNVDGASMSNVTTAIQRSLRRASRTAGQPTLRPTRTEQVCGPAVLGAGEALGLAPFKYVCYTVSTTSVVAPASGSASAASKGAKGDGGATYVEFVDAFRIRTSDVHAAVIDIAAQQRAERLQHSPNLYVPWCAAAPGEVVPRGAARTVADFIVAARHRTLYSDYAATELLVRQSWLLQDAAAHTIRALMPHMVPRTYMPGEVMACPHTPGSLRQLCFLRRGRLNVFVVPKSGITPVLLMKGESPDVLVTSRFSRDGCGCWCLRETPTAQPAEVVESGASFGELSVLFHEPRHCILRADTVCDVWCLPRQNFAALMQRDAALRDGLLRKAAVLRVEWMGEQRFTRALAQQLRAGSELLKPLPDIAIRLIQERLEPVIYTPGSLVASTSTRCTEMTFIMRGTVSTIWKVLLHTAQGTCWARDA | not soluble |
| MHHHHHHSSGRENLYFQGFRGTDPGDVVIEELFNRIPQANVRTTSEYMQSAADSLVSTSLWNTGQPFRVESELGERPRTLVRGTVLGQEDPYAYLEATDQETGESFEVHVPYFTERPPSNAIKQMKEEVLRLRLLRGIKNQKQAKVHLRFIFPFDLVKDPQKKKMIRVRLDERDMWVLSRFFLYPRMQSNLQTFGEVLLSHSSTHKSLVHHARLQLTLQVIRLLASLHHYGLVHTYLRPVDIVLDQRGGVFLTGFEHLVRDGASAVSPIGRGFAPPETTAERMLPFGQHHPTLMTFAFDTWTLGLAIYWIWCADLPNTDDAALGGSEWIFRSCKNIPQPVRALLEGFLRYPKEDRLLPLQAMETPEYEQLRTELSAALPLYQTDGEPTREGGAPPSGTSQPDEAGAAEAVTAI | soluble |
| MGSDKIHHHHHHMTHDLLDLLRQWHQSPDEAWVLAVLTQVQGSSYRKPGAMMLFHPMGKSYGMLSGGCLEADLRRHAQQVIQSQCVAQVEYDASDESDSSYQLGCGGIVNIMLVTVTKANDYLGFNPLLAALARGDSVEYELSLPANASPCQQASAKLSIVPLSDNLTQAQLKGAHKAVTAYKHEVLTMRLAPPIALGIFGAGLDAQPVAAMAQQLGWQVSVFDERSAYGRLYDFPSVKVVKGPFDAIEPAILKRLDAAIVMSHNLNLDAKALSLLASLSQPHSHNNLAYLALLGPPQRRDRVLRIAGLELADIKCFFSAPAGLALGGELPSSVALSIVSQCHGVLHGSAIIALDEVMGCP | not soluble |
| MYIPKHFESMELSRYKLSKKPPLGTLFSSKASRQGFFGWRTSSNKDDPDFGMCASHIPFVFVEFDNGEHKLIAHLARKNKHVEMLERVQKCLVVFQSVDSYISPAWFPMKKKTHKFVPTWDFAAVHVYGTPRIIRDDKDWLINMLSTLTDQEEEKRPEGENVRSKVERF | soluble |
| MGSDKIHHHHHHSESIIEEAVRKGEVLKGEIVPIDTALFRYAYRMRVQGDKAVILDLHNADYYYHVFTYPDFQYQSSFGKRGEGPGESIYAANIRFAGQDTVWVLDDGKGRMYQYSGIAGGKTPKQEKDILLDKRLFRSLDFDLKDASTVVIPDYSGENRFSWASLSSGELLRKSEQIPVSDPELLRESAPAVAQGWNSFVSFSPDKKILVSVTQFGDRLDIYSMASQKHIGELGGDGEPQFKVSPEGYGLPAGRICYYDVQVTDQYIYTIYDGRKFKDIMKLADAYQQGGKILRISTHEGDVVKTYVLDRPIAGIYVDEAAGMLFGLDVNADEQIVKFPLELE | not soluble |
| MGSDKIHHHHHHMDTRTLIYLHQYFSIPTVSGGTRSWEFSTRLVQDKWQVCMFCGDSEIHGIPAVNILKLFNTKNVSFKLNVIPLKYSNYMSFSRRIFAFLSFAVRSSLQVLREEKADLTFATSTPLTIAIPALLRKWLHGTPYIFEVRDLWPEMPIAMKAVRSPLAIFLARQLELIAYQNASHIVALSPGMKEGIVKQGISPEKVEVIPNACDNARFNISETIGLEFLRQHPELSGGPLIVYTGTFGHINGVNYLAYLASHMRNIIPEAKFLVVGSGVCESEVREASCQLGILEKNFWMWPPIPKAEMPALLSACTVATSLFKPIPEMEHNSANKFFDALAAGRPVVINYGGWQKEILEQSGAGISISSNDPKVAAIQLAKFLNSSECLQSAQAAARKLADTVFDRDILYKKLANVFQKVLNETHSDI | not soluble |
| MSLKIVIIGGVAGGMSAATRLRRLMEDAEIVVMEKGPFVSFANCGLPYYVSGEIAEREQLLVQTPEALKARFNLDVRPHHEVVAIDPIEKVITVKHETEILTEHYDKLILSPGAKPFVPPITGLAEAKNVFSLRNVPDLDQIMTALTPETKRAVVIGAGFIGLEMAENLQKRGLEVTLVEKAPHVLPPLDEEMAAFVKAELSKNNVQVITGQSAVAFEEEGQVIRLEDGQTLASDLTILSVGVQPENTLAVEAGVATGLRGGIVVDEHYQTNQPDIYAVGDAIVVKQQITQEDALISLASPANRQGRQVADVIAGLERKNQGSIGTAIVRVFDLTAASTGLSERAAKAAGLTTAVVHISGKDHAGYYPGATDLQLKLVFHPTTGEIYGAQGIGAKGVDKRIDILATAIKGQLTIFDLPELEFTYAPPFGSAKDPVNMLGYAAMNLVEGLSENVQWYELSNELANGAVLLDVRNPAERANGQFKNAVSIPLNELRERLEELDKSTEYIVSCHSGLRSYIAERMLKQAGISAKNLDGAFALYRMVKPEELENEGHHHHHH | soluble |
| MGSDKIHHHHHHMTVELLNEPLSRYPAFDTADPEELRQALSSVYGAKLVEGPIAADFHARSNFVQLDDIALAFGVGTGSIAVEFPEGECARLQIALSGQFTTRSGGTSTAINARQAGIISPGRNARTEYGQNYSFTLLRVSTSALERKLTTLLGCKPKASLEFEPAANNEAPQVVNLRRMLCFLANQLNCSPLPPVVLAELQEAITLLFLSAFRHNYSRQLERESHGIAPKHVRQVEEYIEANWMRPITIEKLTALTGISSRGIFKAFQRSRGYSPMAFAKRVRLQHAHNLLSDGATPTTVTAAALSCGFSNLGHFARDYRDMFGEKPSETLQRARP | not soluble |
| GSSGSSGMKQATRKPTTPGDILLYEYLEPLDLKINELAELLHVHRNSVSALINNNRKLTTEMAFRLAKVFDTTVDFWLNLQAAVDLWEVENNMRTQEELGRIETVAEYLARREERAKKVA | soluble |
| SLNKNARLQQENHFLSLQRSRYDNLCAAIEETRQVRHDIRHHYLQLAALAEKGDMEKIKEYLSSADRKMPSFDFHFCDNQAVDSILGYYSNHAKQEGIPFLAQIDIPDNFLGDEMDICLVLSNLLENAIEASLKTEDSRRKIVIKMYLHHTHILLIQAENNFDAKILEKNGVFQSTKHSGNGIGIQSIRHITERNGGASNFTYKDGEFTAKIMLRI | not soluble |
| GPGSMRSTAELSSPLSISLPCSLSAEPPHHTLPATTANIIALRRAADPSTFTHTHTNTARPPLPAPYFRQRDSSWCSHASPHAHRHTHTYPSLSLPAPRFFFAHRYAAAALPRRLPAIMTHEFHSLFLPLAAEEQAVFADFFPTLVASSTSIQDGVAGEHSLQPTVSATLDTYSSACATSPHSPGECGSLPEVGRGAATDAQARCDAPLRSLVFAIGSARADAVIVVLRRGDVVLYGLDRLHTPPYEKCRIRPLPTTQQLMAARENARRYSNADGAASAGSWTDASCSGGVAGSRSVVNGGVEATCAALLPLHIGYCCRIPLSASFSSATPPAGGPRRGGGGGSRDERDEDVVYLRGIVGSSDGRVSLFSDTSYTLSFAAHDIPVAQVDAVLLPPCTLDRRVSTNASPTTSTRGFSSTGAGANTRTAPSGELTSPTSPQPQERLARATQRLGLVTSGNDGVVLLWRRLGDSMSPIVVVRPSTFSSRAAYAVYHPSALSALLSSWAPPSQREAAVDAELSCPPSCLLHAATSTSHTLRVRQLASISPKPTHKSLSSAARRESVEEAAPTSMSAALPGSWSATVTAIAAHDSVTLVAMGASLLSLVKLNPRSAARVWKAAESITQLVLIDSVALAVCARSGTVHVLTIHPGTGRVVRQRVYYSYKNRAIHHTSLHVASLLMTIVDVCGSTELVQLPTDVMLPCDVRLRRGEYTSGDAANVNLLASMAALRAKVCIEAIKGGSGGGVSGSVAANEAEVTGGSTSMYEANAALDQLNERLLLARYAVPEECDNFMGANVHVF | not soluble |
| MGSDKIHHHHHHMPLPQVTMQELPWKMKKSLSRSTLRSPNGFSEIGLKLEMVSQDALRRTIFPLGGLTKEFVKKIAAENRLHHVLQKKESMGMCFIGKRNFEHFLLQYLQPRPGHFISIEDNKVLGTHKGWFLYTLGQRANIGGLREPWYVVEKDSVKGDVFVAPRTDHPALYRDLLRTSRVHWIAEEPPAALVRDKMMECHFRFRHQMALVCCVLQGGRVPGQREDPAAGAVCLHAPEGPAQSWDGH | not soluble |
| MLPINRQQHILKWLKEEGSLRISDISARFGVSEMTVYRDVNQLVQSNQVIKTAGGITLPVRTPQTDHMCSYCLKPVNQAHSVQLITVNQDIEQLCCAHCAFLRYADKTEEVSHLICRDFLLQTTVSAGSAYFVVNAELNLHCCQPQAIPFATLDHAERFQKGFGGAVCTFDQALEDMLQDRKKRCTCTKK | soluble |
| MSLNLLFTGASGFLGYNVLPLLKKKYSVETIGLTSQDDYIVNLAAEIPKLAGKYDVILHVAGKAHSLPKTEAEKRLFFDVNLQGTKNLCTALEQSGIPKSFIFISTVAVYGCDSGENITEEYPLNGTTPYALSKIKAEKYLEEWCAMHNVKLSILRPSLIAGPNPPGNLGAMIHGIKSGKYLSIAGGKAQKSVLMVQDIANLVPLLIEKGGIYNVCDSYQPSFRELEMVICKQLNKKLPLSIPYWFAKSMAVFGDCFGEKAPINSLKLRKITHSLTFSNEKAMRELGWKPMNVLKNFREGHHHHHH | soluble |
| MRTMVFPGSAPAYPIRYPSTMQETDSGAGPRTLRRGLMVLAALRDQGPRGLSVTDIARQTGIQRPTIYRLLAALLDAGLVVPLQGTKKYRTQLAADADLAAPDPRVRQMLPVLRRLADRTGDAVFLVVRDGDDSVSLHREIGSYPVQILATYAGKRQPLGVGSGGMALLAALPDEIAHAIVQRNSGRLDEYGGMTPQEMHRLIENTRARGYSVVGNHAVRGALGVGCALLDAQGAPVLAVSVTAIIDRMPAQRQREIAGWIGAELARLAPKA | not soluble |
| MNFIIEPGSLADIDELERLYDELNDHLSATINYPGWIKGIYPVRENAAAGVDDNSLFVARCDGRIAGSVILDHQPEKAYENIVWKIDADYSYIFVVRTFVVHPSFLQMGVGHALMDFSLELALKSEMKSIRLDVYEKNLPAISLYEKCGFEYIDTVDLGLGHYGLDWFKLYEKVILEHHHHHH | soluble |
| MKELVVVAIGGNSIIKDNASQSIEHQAEAVKAVADTVLEMLASDYDIVLTHGNGPQVGLDLRRAEIAHKREGLPLTPLANCVADTQGGIGYLIQQALNNRLARHGEKKAVTVVTQVEVDKNDPGFAHPTKPIGAFFSDSQRDELQKANPDWCFVEDAGRGYRRVVASPEPKRIVEAPAIKALIQQGFVVIGAGGGGIPVVRTDAGDYQSVDAVIDKDLSTALLAREIHADILVITTGVEKVCIHFGKPQQQALDRVDIATMTRYMQEGHFPPGSMLPKIIASLTFLEQGGKEVIITTPECLPAALRGETGTHIIKT | soluble |
